Laboratory results reported in IntAct's records for PubMed 22752157.

B1: Kinase suppressor of Ras 1 (Mus musculus), Q61097 (parent)
chain: MDRAALRAAAMGEKKEGGGGGAAADGGAGAAVSRALQQCGQLQKLIDISIGSLRGLRTKCSVSNDLTQQEIRTLEAKLVKYICKQQQSKLSVTPSDRTAELNSYPRFSDWLYIFNVRPEVVQEIPQELTLDALLEMDEAKAKEMLRRWGASTEECSRLQQALTCLRKVTGLGGEHKMDSGWSSTDARDSSLGPPMDMLSSLGRAGASTQGPRSISVSALPASDSPVPGLSEGLSDSCIPLHTSGRLTPRALHSFITPPTTPQLRRHAKLKPPRTPPPPSRKVFQLLPSFPTLTRSKSHESQLGNRIDDVTPMKFELPHGSPQLVRRDIGLSVTHRFSTKSWLSQVCNVCQKSMIFGVKCKHCRLKCHNKCTKEAPACRITFLPLARLRRTESVPSDINNPVDRAAEPHFGTLPKALTKKEHPPAMNLDSSSNPSSTTSSTPSSPAPFLTSSNPSSATTPPNPSPGQRDSRFSFPDISACSQAAPLSSTADSTRLDDQPKTDVLGVHEAEAEEPEAGKSEAEDDEEDEVDDLPSSRRPWRGPISRKASQTSVYLQEWDIPFEQVELGEPIGQGRWGRVHRGRWHGEVAIRLLEMDGHNQDHLKLFKKEVMNYRQTRHENVVLFMGACMNPPHLAIITSFCKGRTLHSFVRDPKTSLDINKTRQIAQEIIKGMGYLHAKGIVHKDLKSKNVFYDNGKVVITDFGLFGISGVVREERRENQLKLSHDWLCYLAPEIVREMIPGRDEDQLPFSKAADVYAFGTVWYELQARDWPFKHQPAEALIWQIGSGEGVRRVLASVSLGKEVGEILSACWAFDLQERPSFSLLMDMLERLPKLNRRLSHPGHFWKSADINSSKVMPRFERFGLGTLESGNPKM

Variants of: B1
Conditions: with VRK2, Q86Y07-1
Sequence of VRK2, Q86Y07-1 (Q86Y07 whole entry): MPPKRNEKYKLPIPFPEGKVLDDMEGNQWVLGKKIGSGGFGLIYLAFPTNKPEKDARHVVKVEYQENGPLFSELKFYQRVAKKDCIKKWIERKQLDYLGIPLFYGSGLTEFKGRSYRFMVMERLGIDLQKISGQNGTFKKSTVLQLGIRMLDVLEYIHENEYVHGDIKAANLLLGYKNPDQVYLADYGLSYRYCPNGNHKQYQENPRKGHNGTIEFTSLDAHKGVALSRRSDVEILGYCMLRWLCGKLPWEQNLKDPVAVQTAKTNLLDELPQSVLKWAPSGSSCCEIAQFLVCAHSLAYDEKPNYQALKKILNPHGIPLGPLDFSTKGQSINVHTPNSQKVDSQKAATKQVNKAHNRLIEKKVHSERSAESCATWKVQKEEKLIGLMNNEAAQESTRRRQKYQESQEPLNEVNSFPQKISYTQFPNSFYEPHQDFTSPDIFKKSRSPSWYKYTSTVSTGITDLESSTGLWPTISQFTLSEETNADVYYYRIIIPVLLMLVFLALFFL

Variant	effect of a mutation on the interaction
C809Y	decreasing interaction
